Source: patent publication US20060020118A1

Target: human IFNAR1 (first human interferon-alpha receptor), membrane form on cells (human) (UniProt P17181)
Assay: flow cytometry, fluoresceinated control IgG on U266 cells, no soluble hIFNAR1

Sequence of UniProt P17181 (P17181 28-557): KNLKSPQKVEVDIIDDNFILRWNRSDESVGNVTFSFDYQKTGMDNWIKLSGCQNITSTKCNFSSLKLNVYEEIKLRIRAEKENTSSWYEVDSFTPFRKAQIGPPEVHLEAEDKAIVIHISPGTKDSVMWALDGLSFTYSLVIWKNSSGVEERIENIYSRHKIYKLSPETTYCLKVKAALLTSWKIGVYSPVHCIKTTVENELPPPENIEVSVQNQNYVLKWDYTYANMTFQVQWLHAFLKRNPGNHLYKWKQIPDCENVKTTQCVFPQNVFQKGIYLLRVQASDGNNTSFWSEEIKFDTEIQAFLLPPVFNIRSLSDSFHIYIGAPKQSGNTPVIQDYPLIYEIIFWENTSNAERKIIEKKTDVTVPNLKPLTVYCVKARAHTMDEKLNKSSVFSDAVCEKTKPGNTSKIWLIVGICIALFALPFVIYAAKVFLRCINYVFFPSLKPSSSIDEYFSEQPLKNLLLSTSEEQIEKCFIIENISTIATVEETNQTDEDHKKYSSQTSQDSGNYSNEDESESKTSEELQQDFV

fluoresceinated control IgG (antibody) gave a Mean Fluorescence Intensity of 2.99.
